Reference: patent US20170355757A1 (Regeneron, published 2017)
Positions count from the first letter of the chain named. Numbers in names are those of the source.

T1: monkey C5-mmh (monkey, UniProt P01031 19-1676 (human entry), limits assumed)
T1 construct: recombinant, with C-terminal myc-myc-hexahistidine tag
T1 chain: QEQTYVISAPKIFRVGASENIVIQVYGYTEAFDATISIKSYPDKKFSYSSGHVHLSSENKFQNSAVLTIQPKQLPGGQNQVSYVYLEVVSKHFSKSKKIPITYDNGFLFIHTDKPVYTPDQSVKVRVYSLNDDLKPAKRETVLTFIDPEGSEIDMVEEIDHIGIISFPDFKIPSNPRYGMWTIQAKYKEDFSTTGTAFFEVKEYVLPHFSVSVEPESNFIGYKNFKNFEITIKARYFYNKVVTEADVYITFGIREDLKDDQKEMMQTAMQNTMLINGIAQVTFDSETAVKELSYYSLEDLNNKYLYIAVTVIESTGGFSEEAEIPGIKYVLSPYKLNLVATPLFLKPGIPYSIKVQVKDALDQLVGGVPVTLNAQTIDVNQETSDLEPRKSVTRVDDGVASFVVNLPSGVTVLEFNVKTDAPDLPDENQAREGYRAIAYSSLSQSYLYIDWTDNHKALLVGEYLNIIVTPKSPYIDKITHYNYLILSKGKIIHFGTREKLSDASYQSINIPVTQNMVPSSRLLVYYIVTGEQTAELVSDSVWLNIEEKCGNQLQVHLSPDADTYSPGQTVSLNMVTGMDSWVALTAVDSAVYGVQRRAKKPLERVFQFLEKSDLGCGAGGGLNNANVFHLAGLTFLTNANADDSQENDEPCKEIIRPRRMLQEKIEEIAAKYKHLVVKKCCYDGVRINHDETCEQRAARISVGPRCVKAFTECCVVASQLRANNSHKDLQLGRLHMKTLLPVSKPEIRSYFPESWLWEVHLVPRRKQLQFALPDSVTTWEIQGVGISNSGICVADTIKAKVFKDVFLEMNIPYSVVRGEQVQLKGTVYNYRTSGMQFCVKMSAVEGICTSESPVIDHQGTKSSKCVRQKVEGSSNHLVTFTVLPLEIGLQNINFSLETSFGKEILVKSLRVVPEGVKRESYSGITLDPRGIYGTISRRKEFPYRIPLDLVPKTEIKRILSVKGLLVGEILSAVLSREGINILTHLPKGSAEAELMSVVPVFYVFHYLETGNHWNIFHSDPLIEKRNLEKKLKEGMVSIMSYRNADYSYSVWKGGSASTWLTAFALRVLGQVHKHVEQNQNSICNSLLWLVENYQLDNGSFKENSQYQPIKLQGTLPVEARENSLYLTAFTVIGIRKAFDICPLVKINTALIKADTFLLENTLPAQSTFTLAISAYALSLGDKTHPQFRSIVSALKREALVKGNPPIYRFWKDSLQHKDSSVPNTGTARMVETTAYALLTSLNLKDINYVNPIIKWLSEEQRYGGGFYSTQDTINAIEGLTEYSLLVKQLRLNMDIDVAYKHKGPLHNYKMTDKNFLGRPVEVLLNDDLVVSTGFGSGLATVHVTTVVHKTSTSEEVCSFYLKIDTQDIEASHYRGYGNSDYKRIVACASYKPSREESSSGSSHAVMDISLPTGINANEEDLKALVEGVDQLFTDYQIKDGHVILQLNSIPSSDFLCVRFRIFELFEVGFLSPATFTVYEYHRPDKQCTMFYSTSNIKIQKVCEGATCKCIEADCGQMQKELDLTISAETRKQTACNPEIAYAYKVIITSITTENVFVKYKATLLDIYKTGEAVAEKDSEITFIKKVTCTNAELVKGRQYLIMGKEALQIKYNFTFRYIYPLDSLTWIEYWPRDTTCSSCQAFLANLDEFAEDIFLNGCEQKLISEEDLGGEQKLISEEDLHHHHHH

B1: H4H11683N (antibody, human IgG4, V domains shown)
VH: QVQLVESGGGVVQPGRSLRLSCVASGFTFSSYGIHWVRQAPGKGLEWVAVIWDDGNNINYSDSVKGRFIISRDNSRKTVYLQMNSLRGEDTAVYYCARDAPIAPVPDYWGQGTLVTVSS
VL: DIQMTQSPSTLSASVGDRVTITCRASQSISSWLAWYQQKPGKAPKLLIYKASSLDTGVPSRFSGSGSGTEFTLTISSLQPDDFATYYCQQYNTYSYTFGLGTKLEIK
notes: tested with H4H prefix (human IgG4 Fc with S108P hinge mutation); variable regions follow the numerical identifier; also called H2M11683N
B2: H4H12170P (antibody, human IgG4, V domains shown)
VH: QVQLVESGGGVVQPGRSLRLSCAASGFTFSGYGMHWVRQAPGKGLEWVALIWLDGSNDYYADSVKGRFTISRDNSKNTLYLQMNRLRAEDTAVYYCARDGPVAAIPDYWGQGTLVTVSS
VL: B1 VL with S31R, Q38L, D55E, T56S, E70D, L100Q
notes: H4H: human IgG4 Fc with S108P hinge mutation
B3: H4H12159P (antibody, human IgG4, V domains shown)
VH: QVQLVESGGGVVQPGRSLRLSCGASGFTFSTYGMHWVRQAPGKGLEWVAVIWDDGNNKYYADSVKGRFTISRDNSKNTLYLQMNSLRAEDTAVYYCARDSEVAPVGDYWGQGTLVTVSS
VL: B1 VL with T22I, S30N, S31R, D55E, T56S, T85A, T93D, L100Q
notes: as for B2
B4: H4H12177P2 (antibody, human IgG4, V domains shown)
VH: EVQLVESGGGVVQRGESLRLSCSASDFIFKDYAMYWVRQIPGKGLEWISLISGDGDTTWYGDSVKGRFTISRDNNENSLFLQMNDLRTEDTAMYYCARDMGWNFFQLQYWGQGTLVTVSS
VL: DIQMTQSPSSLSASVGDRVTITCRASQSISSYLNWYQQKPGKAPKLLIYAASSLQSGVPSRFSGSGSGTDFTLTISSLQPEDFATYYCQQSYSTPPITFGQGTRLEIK
notes: as for B2
B5: H4H12163P (antibody, human IgG4, V domains shown)
VH: EVQLVESGGDLVQPGGSLRLSCAASGFTFSSYAMNWVRQGPGKGLEWVSAISGRGDSTYYADSVKGRLTISRDNSKNTLYLQMNSLRAEDTAVYYCVKEGEQLVYWYFDLWGRGTLVTVSS
VL: DIQMTQSPSSLSASVGDRVTITCRASQTISNFLHWYQQKPGKAPKLLIYAASSLQSGVPSRFSGSGSGTDFTLTISSLQPEDFSTYFCQQSYTTPLTFGGGTKVEIK
notes: as for B2

molecular target: T2, human C5 (human, UniProt P01031 19-1676); assay: cell-based or functional assay

Binder	IC50, inhibition of CDC of Daudi cells, 1.66% human serum [nM]
B1	1.2
B2	2
B3	3.2
B4	2.2
B5	3.4

molecular target: T3, African green monkey C5 (African green monkey); assay: cell-based or functional assay

Binder	IC50, inhibition of CDC of Daudi cells, 1.66% African Green monkey serum [nM]
B1	4
B2	3.7
B3	3.4
B4	6.1
B5	3.7

molecular target: human C5 R885H-mmh (human, UniProt P01031 19-1676); assay: cell-based or functional assay

Binder	IC50, inhibition of CDC of Daudi cells, C5 depleted human serum and 6.6 nM C5 Variant R885H [nM]
B1	1.3
B2	0.48
B3	1.4
B4	2.4
B5	2.1

molecular target: human C5 R885C-mmh (human, UniProt P01031 19-1676); assay: cell-based or functional assay

Binder	IC50, inhibition of CDC of Daudi cells, C5 depleted human serum and 6.6 nM C5 Variant R885C [nM]
B1	0.9
B2	0.43
B3	1
B4	1.6
B5	1.1

molecular target: T2, human C5; assay: cell-based or functional assay; remark: another data set of the same source

Binder	Human AP % Max Inhibition, hemolysis assay, NHS [%]	Human AP IC50, hemolysis assay, NHS [nM]	Human CP % Max Inhibition, hemolysis assay, NHS [%]	Human CP IC50, hemolysis assay, NHS [nM]
B1	73.2	34	98.1	2.54
B2	81.1	18	98.2	2.39
B3	73.4	17.5	97.9	2.5
B4	71	17	97.5	2.34
B5	66	20.5	96.1	2.72

molecular target: T3, African green monkey C5; assay: cell-based or functional assay; remark: another data set of the same source

Binder	AGM AP % Max Inhibition, hemolysis assay, 5% serum [%]	AGM CP % Max Inhibition, hemolysis assay, 5% serum [%]	AGM Serum AP IC50, hemolysis assay, 5% serum [nM]	AGM Serum CP IC50, hemolysis assay, 5% serum [nM]
B1	88.1	81.1	40.8	29.2
B2	90.9	94.9	26.9	25.4
B3	93.5	93.4	27	25.8
B4	8.8	80.6	101	180
B5	58.5	83.2	216	69

molecular target: Cynomolgus monkey C5 (cynomolgus monkey, UniProt A0A2K5U1T1 19-1676); assay: cell-based or functional assay

Binder	Cyno AP % Max Inhibition, hemolysis assay, 5% serum [%]	Cyno CP % Max Inhibition, hemolysis assay, 5% serum [%]	Cyno Serum AP IC50, hemolysis assay, 5% serum [nM]	Cyno Serum CP IC50, hemolysis assay, 5% serum [nM]
B1	98.9	98.8	7.15	9
B2	99.2	99	7	8.2
B3	99.6	99.3	7.05	7.75
B4	98.1	94.9	8.8	17.1
B5	98.5	96.4	10.2	16.5

molecular target: T2, human C5; assay: SPR (Biacore), mAb captured, dissociation of human C5 at pH7.4 vs pH6.0, 37°C
Protocol: Effect of pH on the rate of dissociation of recombinant human C5 bound to purified anti-C5 monoclonal antibodies was determined using a real-time surface plasmon resonance biosensor using a Biacore T200 instrument. The Biacore sensor surface was first derivatized by amine coupling with a monoclonal mouse anti-human Fc antibody (GE, # BR-1008-39) to capture anti-C5 monoclonal antibodies expressed with human IgG4 Fc. All Biacore binding studies were performed using two running buffers PBS-T, pH7.4 (0.01M Na₂HPO₄/NaH₂PO₄, 0.15M NaCl, 0.05% v/v Tween-20, adjusted to pH7.4) and PBS-T, pH6.0 (0.01M Na₂HPO₄/NaH₂PO₄, 0.15M NaCl, 0.05% v/v Tween-20, adjusted to pH6.0). […] Binding dissociative half-lives (t %) were calculated from kd as: […]

Binder	t½ Ratio pH7.4/pH6.0
B1	1.4
B2	≤ 0.2
B3	≤ 0.2
B4	1.3
B5	0.8

Molecular target: T1, monkey C5-mmh
Assay: SPR (Biacore), mAb captured, dissociation of monkey C5 at pH7.4 vs pH6.0, 25°C

Binder	t½ Ratio pH7.4/pH6.0
B1	0.34
B2	≤ 1.7
B3	1.2
B4	3.7
B5	9.7

Molecular target: T1, monkey C5-mmh
Assay: SPR (Biacore), mAb captured, dissociation of monkey C5 at pH7.4 vs pH6.0, 37°C

Binder	t½ Ratio pH7.4/pH6.0
B1	0.7
B2	4.7
B3	6.3
B4	1.5
B5	3.3
